{"source": "patent US20260250318A1", "about": "“COMPOSITIONS AND METHODS FOR CROSSING THE BLOOD BRAIN BARRIER” (VOYAGER THERAPEUTICS, INC., priority 2022, published 2026)", "molecules": {"B1": {"name": "TTM-001: AAV9 capsid variant comprising SPHSKA (SEQ ID NO: 941) in loop IV (protein)", "chain 1": "MAADGYLPDWLEDNLSEGIREWWALKPGAPQPKANQQHQDNARGLVLPGYKYLGPGNGLDKGEPVNAADAAALEHDKAYDQQLKAGDNPYLKYNHADAEFQERLKEDTSFGGNLGRAVFQAKKRLLEPLGLVEEAAKTAPGKKRPVEQSPQEPDSSAGIGKSGAQPAKKRLNFGQTGDTESVPDPQPIGEPPAAPSGVGSLTMASGGGAPVADNNEGADGVGSSSGNWHCDSQWLGDRVITTSTRTWALPTYNNHLYKQISNSTSGGSSNDNAYFGYSTPWGYFDFNRFHCHFSPRDWQRLINNNWGFRPKRLNFKLFNIQVKEVTDNNGVKTIANNLTSTVQVFTDSDYQLPYVLGSAHEGCLPPFPADVFMIPQYGYLTLNDGSQAVGRSSFYCLEYFPSQMLRTGNNFQFSYEFENVPFHSSYAHSQSLDRLMNPLIDQYLYYLSKTINGSGSPHSKAQNQQTLKFSVAGPSNMAVQGRNYIPGPSYRQQRVSTTVTQNNNSEFAWPGASSWALNGRNSLMNPGPAMASHKEGEDRFFPLSGSLIFGKQGTGRDNVDADKVMITNEEEIKTTNPVATESYGQVATNHQSAQAQAQTGWVQNQGILPGMVWQDRDVYLQGPIWAKIPHTDGNFHPSPLMGGFGMKHPPPQILIKNTPVPADPPTAFNKDKLNSFITQYSTGQVSVEIEWELQKENSKRWNPEIQYTSNYYKSNNVEFAVNTEGVYSEPRPIGTRYLTRNL", "chain 2": "GSGSPHSKAQNQQT"}, "B2": {"name": "TTM-002: AAV9 capsid variant comprising HDSPHK (SEQ ID NO: 2) in loop IV (protein)", "chain 1": "MAADGYLPDWLEDNLSEGIREWWALKPGAPQPKANQQHQDNARGLVLPGYKYLGPGNGLDKGEPVNAADAAALEHDKAYDQQLKAGDNPYLKYNHADAEFQERLKEDTSFGGNLGRAVFQAKKRLLEPLGLVEEAAKTAPGKKRPVEQSPQEPDSSAGIGKSGAQPAKKRLNFGQTGDTESVPDPQPIGEPPAAPSGVGSLTMASGGGAPVADNNEGADGVGSSSGNWHCDSQWLGDRVITTSTRTWALPTYNNHLYKQISNSTSGGSSNDNAYFGYSTPWGYFDFNRFHCHFSPRDWQRLINNNWGFRPKRLNFKLFNIQVKEVTDNNGVKTIANNLTSTVQVFTDSDYQLPYVLGSAHEGCLPPFPADVFMIPQYGYLTLNDGSQAVGRSSFYCLEYFPSQMLRTGNNFQFSYEFENVPFHSSYAHSQSLDRLMNPLIDQYLYYLSKTINGHDSPHKSGQNQQTLKFSVAGPSNMAVQGRNYIPGPSYRQQRVSTTVTQNNNSEFAWPGASSWALNGRNSLMNPGPAMASHKEGEDRFFPLSGSLIFGKQGTGRDNVDADKVMITNEEEIKTTNPVATESYGQVATNHQSAQAQAQTGWVQNQGILPGMVWQDRDVYLQGPIWAKIPHTDGNFHPSPLMGGFGMKHPPPQILIKNTPVPADPPTAFNKDKLNSFITQYSTGQVSVEIEWELQKENSKRWNPEIQYTSNYYKSNNVEFAVNTEGVYSEPRPIGTRYLTRNL", "chain 2": "GHDSPHKSGQNQQT"}}, "key": {"[1]": {"tested_on": "N-linked galactose on HeLa cells", "assay": "Transduction of HeLa cells after neuraminidase treatment (Luc2 activity)", "format": "cell-based, human", "details": "Neuraminidase 1000 mU/mL"}, "[2]": {"tested_on": "brain, spinal cord, liver and peripheral tissues", "assay": "Individual capsid characterization in mice (qPCR transgene mRNA, viral DNA, IVIS, anti-GFP IHC)", "details": "for DNA (viral genome quantification), Brain, relative to the AAV9 control / mRNA (transgene expression), Brain, relative to the AAV9 control / DNA (viral genome quantification), Liver, relative to the AAV9 control / mRNA (transgene expression), Liver, relative to the AAV9 control: BALB/c mice, tail vein 5e11 VG/dose; for anti-GFP immunohistochemistry staining in brain and spinal cord: compared to AAV9 control", "protocol": "AAV particles were generated with each of these capsid variants encapsulating a luciferase-EGFP transgene driven by a CMV/chicken beta actin promoter in a single stranded viral genome. Each capsid variant and AAV9 control were tested by intravenously administering by tail vein injection, the AAV particle formulation at 5e11 VG/dose (2.5E13 vg/kg) to three female BALB/c mice. The in-life period was 28 days and then various CNS and peripheral tissues were collected for measuring transgene mRNA, transgene protein, and viral DNA (biodistribution).\nAt 28 days post-injection of the AAV particles encapsulated in the TTM-001 capsid variant (AAV_TTM-001), mice were injected with luciferin and their brains were harvested for IVIS imaging.\nThe brains isolated from mice injected with the AAV particles encapsulated in the TTM-001 capsid variant (AAV_TTM-001) or the TTM-002 capsid variant (AAV_TTM-002) were assayed by qPCR for the presence of transgene RNA as a measure of transgene expression, and the presence of viral DNA as a measure of viral genome levels. Data were provided as fold over AAV9 (Table 12).\nThe brain tissues and spinal cords of the mice were also subjected to anti-GFP immunohistochemistry staining to evaluate overall CNS tropism and biodistribution.\nPeripheral tissues were also isolated from the mice intravenously injected with the AAV particles encapsulated in the TTM-001 capsid variant or the TTM-002 capsid variant for analysis by qPCR and/or GFP immunohistochemical staining. Transgene mRNA levels and viral genome DNA levels were quantified in the liver by qPCR and the fold over AAV9 was calculated for each capsid variant (Table 12)."}, "ALPL": {"target": "T1, ALPL (Homo sapiens, UniProt P05186)", "T1 sequence (P05186 18-501)": "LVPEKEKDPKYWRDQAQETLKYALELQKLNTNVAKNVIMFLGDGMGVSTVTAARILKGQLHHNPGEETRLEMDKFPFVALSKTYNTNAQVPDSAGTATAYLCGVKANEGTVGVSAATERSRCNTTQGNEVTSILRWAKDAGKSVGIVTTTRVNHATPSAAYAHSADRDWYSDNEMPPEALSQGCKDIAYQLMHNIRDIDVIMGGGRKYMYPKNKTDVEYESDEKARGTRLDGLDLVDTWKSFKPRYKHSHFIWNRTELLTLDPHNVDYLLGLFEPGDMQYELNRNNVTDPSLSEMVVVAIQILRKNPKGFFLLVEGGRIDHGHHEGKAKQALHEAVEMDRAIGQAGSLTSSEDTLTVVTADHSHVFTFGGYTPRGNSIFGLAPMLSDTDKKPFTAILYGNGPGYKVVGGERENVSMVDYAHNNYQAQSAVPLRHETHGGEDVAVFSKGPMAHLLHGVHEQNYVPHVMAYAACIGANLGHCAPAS", "assay": "SPR (Biacore 8K) binding of peptide ligands to ALPL", "details": "50 μM peptides or 250 nM capsids flowed over", "protocol": "Binding and interaction between the peptides and the ALPL receptor were measured by Surface Plasmon Resonance (SPR) on a Biacore 8K instrument. The biotinylated peptides in Table 37 were captured on the streptavidin biosensor chip and 1000 nM of ALPL and buffer were passed over the peptides to monitor binding. […] His-tagged ALPL was then captured on the chip pre-immobilized with anti-His antibody, and 50 μM of the peptides in Table 37 or 250 nM of the AAV9 control capsid, the TTM-001 capsid variant (SEQ ID NO: 981), or the TTM-002 capsid variant (SEQ ID NO: 982) were flowed over the ALPL to check for binding. […] The longer peptides derived from TTM-002,\nwere also flowed over the his-tagged ALPL captured on the CM5 sensor chip pre-immobilized with anti-His antibody.\nBinding and interaction between the phosho-peptides and the ALPL receptor were also measured by SPR. The biotinylated and phosphorylated peptides in Table 38 were captured on the streptavidin biosensor chip along with their non-phosphorylated counterparts, […] (SEQ ID NO: 4500) and […] (SEQ ID NO: 4503). ALPL and buffer were passed over the peptides to monitor binding. The concentration of ALPL used ranged from 0 to 500 nM (0 nM, 125 nM, 250 nM, and 500 nM).\nIn a second experiment, his-tagged ALPL was first captured on a CM5 sensor chip pre-immobilized with anti-His antibody. The phosphorylated peptides in Table 38 and their non-phosphorylated counterparts, […] (SEQ ID NO: 4500) and […] (SEQ ID NO: 4503) and buffer were flowed over the ALPL protein to monitor binding."}}}
{"molecule": "AAV9: wild-type AAV9 control capsid [reference compound]", "values": [{"measurement": "fold change in Luc2 activity (RLU) relative to the no neuraminidase control", "setting": "[1]", "result": 10.4, "unit": "fold"}, {"measurement": "DNA (viral genome quantification), Brain, relative to the AAV9 control", "setting": "[2]; 28 days, qPCR", "result": 1.0, "unit": "fold over AAV9"}, {"measurement": "mRNA (transgene expression), Brain, relative to the AAV9 control", "setting": "[2]; 28 days, qPCR", "result": 1.0, "unit": "fold over AAV9"}, {"measurement": "DNA (viral genome quantification), Liver, relative to the AAV9 control", "setting": "[2]; 28 days, qPCR, liver", "result": 1.0, "unit": "fold over AAV9"}, {"measurement": "mRNA (transgene expression), Liver, relative to the AAV9 control", "setting": "[2]; 28 days, qPCR, liver", "result": 1.0, "unit": "fold over AAV9"}, {"measurement": "binding to ALPL by SPR, His-tagged ALPL captured on chip", "setting": "ALPL", "result": "No detectable binding"}]}
{"molecule": "B1", "values": [{"measurement": "fold change in Luc2 activity (RLU) relative to the no neuraminidase control", "setting": "[1]", "result": 9.1, "unit": "fold"}, {"measurement": "luciferase signal in brain (IVIS imaging)", "setting": "[2]; 28 days post-injection, 5e11 VG/dose IV, vs AAV9", "result": "Robust luciferase signal"}, {"measurement": "DNA (viral genome quantification), Brain, relative to the AAV9 control", "setting": "[2]; 28 days, qPCR", "result": 32.0315, "unit": "fold over AAV9"}, {"measurement": "mRNA (transgene expression), Brain, relative to the AAV9 control", "setting": "[2]; 28 days, qPCR", "result": 30.4503, "unit": "fold over AAV9"}, {"measurement": "DNA (viral genome quantification), Liver, relative to the AAV9 control", "setting": "[2]; 28 days, qPCR, liver", "result": 0.4802, "unit": "fold over AAV9"}, {"measurement": "mRNA (transgene expression), Liver, relative to the AAV9 control", "setting": "[2]; 28 days, qPCR, liver", "result": 1.2356, "unit": "fold over AAV9"}, {"measurement": "anti-GFP immunohistochemistry staining in brain and spinal cord", "setting": "[2]", "result": "significantly stronger staining and payload expression"}, {"measurement": "transgene mRNA levels in the brain, fold over AAV9", "setting": "[2]; qPCR, 28 days, 5e11 VG/dose IV", "result": 30, "unit": "fold"}, {"measurement": "viral genome (DNA) concentrations in the brain, fold over AAV9", "setting": "[2]; qPCR, 28 days, 5e11 VG/dose IV", "result": 32, "unit": "fold"}, {"measurement": "viral genome DNA levels in the liver compared to AAV9", "setting": "[2]; qPCR, liver", "result": "only half as much"}, {"measurement": "binding to ALPL by SPR, His-tagged ALPL captured on chip", "setting": "ALPL", "result": "Binding to ALPL was detected"}]}
{"molecule": "B2", "values": [{"measurement": "fold change in Luc2 activity (RLU) relative to the no neuraminidase control", "setting": "[1]", "result": 13.7, "unit": "fold"}, {"measurement": "DNA (viral genome quantification), Brain, relative to the AAV9 control", "setting": "[2]; 28 days, qPCR", "result": 47.2810, "unit": "fold over AAV9"}, {"measurement": "mRNA (transgene expression), Brain, relative to the AAV9 control", "setting": "[2]; 28 days, qPCR", "result": 66.2161, "unit": "fold over AAV9"}, {"measurement": "DNA (viral genome quantification), Liver, relative to the AAV9 control", "setting": "[2]; 28 days, qPCR, liver", "result": 0.0277, "unit": "fold over AAV9"}, {"measurement": "mRNA (transgene expression), Liver, relative to the AAV9 control", "setting": "[2]; 28 days, qPCR, liver", "result": 0.2016, "unit": "fold over AAV9"}, {"measurement": "anti-GFP immunohistochemistry staining in brain and spinal cord", "setting": "[2]", "result": "significantly stronger staining and payload expression"}, {"measurement": "transgene mRNA levels in the brain, fold over AAV9", "setting": "[2]; qPCR, 28 days, 5e11 VG/dose IV", "result": 66, "unit": "fold"}, {"measurement": "transgene mRNA levels in the liver compared to AAV9", "setting": "[2]; qPCR, liver", "result": "greatly reduced"}, {"measurement": "viral genome DNA levels in the liver compared to AAV9", "setting": "[2]; qPCR, liver", "result": "greatly reduced"}, {"measurement": "binding to ALPL by SPR, His-tagged ALPL captured on chip", "setting": "ALPL", "result": "Binding to ALPL was detected"}]}
